Source: the supplement of paper PMC9170038

Key:
MS2 coat protein [1] = test: apparent KD of MS2 coat protein, switch ON state; designed switch direction (-1 OFF switch, 1 ON switch): -1; higher = weaker reporter binding; conditions: FMN input: 0 or 200 uM; Eterna round: R93 (includes R88 designs)
Summary of the method: (§1)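 Values are apparent KD, taken as the median for each design of fits to normalised binding curves from individual clusters. The designed RNA switches were transcribed on-chip from Illumina sequencing clusters and exposed to SNAP-549-labelled MS2 coat protein at twofold increasing amounts from 0.7 or 1.5 nM to 3 µM. Titration used 100 mM Tris-HCl pH 7.5, 80 mM KCl and 4 mM MgCl2, without or with constant ligand.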

MS2 coat protein [2] = test: apparent KD of MS2 coat protein, switch OFF state (with FMN for OFF switches, without FMN for ON switches); designed switch direction (-1 OFF switch, 1 ON switch): -1; higher = weaker reporter binding; conditions: FMN input: 0 or 200 uM; Eterna round: R93 (includes R88 designs)
Summary of the method: as §1

AAAAAACAUGAGGAUCACCCAUGUAAGGAUAUGCUAUGGAAAAUAAAAAUAAAACAUAGCAGAAGGUACACCAA [Amethyst 81]
apparent KD of MS2 coat protein (MS2 coat protein [1]): 18.9 nM | apparent KD of MS2 coat protein (MS2 coat protein [2]): 27.3 nM

AAAAAACAUGAGGAUCACCCAUGUAAGGAUAUGCUCGUCAGUGCGAAAGCACAGAUGAGCAGAAGGUACAAAAA [66%, Wbt, 43]
apparent KD of MS2 coat protein (MS2 coat protein [1]): 24.8 nM | apparent KD of MS2 coat protein (MS2 coat protein [2]): 39 nM

AAAAAACAUGAGGAUCACCCAUGUAAGGAUAUGUGAAAAAAAAAAUAAAAAAAAAAAAACAGAAGGUACAAAAA [LROPPY Exclusion 1 - v02_deltaG=3.34]
apparent KD of MS2 coat protein (MS2 coat protein [1]): 45.2 nM | apparent KD of MS2 coat protein (MS2 coat protein [2]): 47.7 nM

AAAAAACAUGAGGAUCACCCAUGUCAGGAUAUACAAAAUAAAAUAAAAAUAAAAUAAAGUAGAAGGGACAAAAA [May 8]
apparent KD of MS2 coat protein (MS2 coat protein [1]): 28.5 nM | apparent KD of MS2 coat protein (MS2 coat protein [2]): 25.4 nM

AAAAAACAUGAGGAUCACCCAUGUCAGGAUAUGCUAUGGAAAUAAAAAAUAAAACAUAGCAGAAGGGACACCAA [Mat - Exclusion 1 - Eli mod - D48]
apparent KD of MS2 coat protein (MS2 coat protein [1]): 31 nM | apparent KD of MS2 coat protein (MS2 coat protein [2]): 55 nM

AAAAAACAUGAGGAUCACCCAUGUCAGGAUAUGCUCAGCAAUAUUAAAAUAAAGAACGGUAGAAGGGACAGAAA [Bilbo Confounded 23 - Jieux - Exclusion 1]
apparent KD of MS2 coat protein (MS2 coat protein [1]): 35.8 nM | apparent KD of MS2 coat protein (MS2 coat protein [2]): 34.7 nM

AAAAAACAUGAGGAUCACCCAUGUCAGGAUAUUCGAAAAAAAAAAAAAAAAAAAAAAAGGAGAAGGGACGAAAA [DR Excl. 1]
apparent KD of MS2 coat protein (MS2 coat protein [1]): 43.4 nM | apparent KD of MS2 coat protein (MS2 coat protein [2]): 56.8 nM

AAAAAACAUGAGGAUCACCCAUGUGAGGAUAUCCAGAAUGGAAUAAAAUAACAAGAAAGGAGAAGGCACAAAAA [Ex 1 May 37]
apparent KD of MS2 coat protein (MS2 coat protein [1]): 67.7 nM | apparent KD of MS2 coat protein (MS2 coat protein [2]): 42.1 nM

AAAAAACAUGAGGAUCACCCAUGUGAGGAUAUCGGAAAAGGAAAAAAAAAAAAGAAGACGAGAAGGCACACCAA
apparent KD of MS2 coat protein (MS2 coat protein [1]): 28.6 nM | apparent KD of MS2 coat protein (MS2 coat protein [2]): 25.1 nM

AAAAAACAUGAGGAUCACCCAUGUGAGGAUAUCGGUAGUGAGGCCAUAGUGUCAGUAAUGAGAAGGCACAUAAA [Brourd 613 Mod 10 - Jieux - Exclusion 1]
apparent KD of MS2 coat protein (MS2 coat protein [1]): 25.4 nM | apparent KD of MS2 coat protein (MS2 coat protein [2]): 22.7 nM

AAAAAACAUGAGGAUCACCCAUGUGAGGAUAUGAUGCGAAUAAAGAAAGAAGAAAGCAUCAGAAGGCACACCUA [Disincluded 3 (MS2 Riboswitches)]
apparent KD of MS2 coat protein (MS2 coat protein [1]): 26.3 nM | apparent KD of MS2 coat protein (MS2 coat protein [2]): 59.9 nM

AAAAAACAUGAGGAUCACCCAUGUGAGGAUAUGCAAAACCCAAAUAAAAAGAGAAAAAGCAGAAGGCACAAAAA [wbt round 1 mod 2]
apparent KD of MS2 coat protein (MS2 coat protein [1]): 23.5 nM | apparent KD of MS2 coat protein (MS2 coat protein [2]): 30.3 nM

AAAAAACAUGAGGAUCACCCAUGUGAGGAUAUGCGAAAUAAAAAUAAAAUAAUAAAAAGCAGAAGGCACAAAAA [Amethyst 64]
apparent KD of MS2 coat protein (MS2 coat protein [1]): 30.1 nM | apparent KD of MS2 coat protein (MS2 coat protein [2]): 40.6 nM

AAAAAACAUGAGGAUCACCCAUGUGAGGAUAUGCUAUGGAAAAUAAAAAUAAAACAUAGCAGAAGGCACACCAA [Denovo 16]
apparent KD of MS2 coat protein (MS2 coat protein [1]): 31.4 nM | apparent KD of MS2 coat protein (MS2 coat protein [2]): 37.4 nM

AAAAAACAUGAGGAUCACCCAUGUUAGGAUAUCCUGCAGAAAAAAAAAAAAAACUGCAGGAGAAGGAGCAAGGA [Banishment 3 - Jieux - Exclusion 1]
apparent KD of MS2 coat protein (MS2 coat protein [1]): 25.8 nM | apparent KD of MS2 coat protein (MS2 coat protein [2]): 44.5 nM

AAAAAAGGAGGAUAUACGUACAUGUCAAAAGACGUGAAGGGACAUGAGGAUCACCCAUGUAGAAGGCUUAAAAA [JL Stem Breaker 6]
apparent KD of MS2 coat protein (MS2 coat protein [1]): 47.7 nM | apparent KD of MS2 coat protein (MS2 coat protein [2]): 18.1 nM

AAAAAGAGAGGAUAUACAUGAGGAUCACCCAUGUGAAAGACGAAAAAAAGUCUAAAAUGUAGAAGGCUCAAAAA [65%, Moding Exclusion3-cac2, 13]
apparent KD of MS2 coat protein (MS2 coat protein [1]): 23.1 nM | apparent KD of MS2 coat protein (MS2 coat protein [2]): 89.7 nM

AAAAAGAGAGGAUAUACAUGAGGAUCACCCAUGUGACAUUAAAUAAAUAAAAUAAAAUGUAGAAGGCUCAAAAA [65%, Moding Exclusion3-cac2, 22]
apparent KD of MS2 coat protein (MS2 coat protein [1]): 38.6 nM | apparent KD of MS2 coat protein (MS2 coat protein [2]): 171 nM

AAAAAGCAAGGAUAUACAUGAGGAUCACCCAUGUGAAAAAAAACAAUAAGAAGAAAAAGUAGAAGGUGCAAAAA [Ex 3 Tesla 1]
apparent KD of MS2 coat protein (MS2 coat protein [1]): 24 nM | apparent KD of MS2 coat protein (MS2 coat protein [2]): 18.8 nM

AAAAAGCUAGGAUAUACAUGAAAAAAAAAAAAGUAAAAAAAACAUGAGGAUCACCCAUGUAGAAGGAGCAAAAA [water's exclusion 2 last]
apparent KD of MS2 coat protein (MS2 coat protein [1]): 40.4 nM | apparent KD of MS2 coat protein (MS2 coat protein [2]): 37 nM

AAAAAGGCAGGAUAUACAAAAAAAUUUUUAAAAAAAAAAAAACAUGAGGAUCACCCAUGUAGAAGGGCCAAAAA [Ex 2.1]
apparent KD of MS2 coat protein (MS2 coat protein [1]): 52 nM | apparent KD of MS2 coat protein (MS2 coat protein [2]): 43.3 nM
